Positions count from the first letter of the chain named. Names and notes keep the numbering of the source.
B1: Id_ii_S4_P3E.4_K3.3_C3.2_[C-2T]_[T-1C]_H3.3_A3.1_F3.1_T3.2_[A10C] (ssRNA)
RNA: UUUGACAACUGAUCGUUCUUUCUUCACACUAUAUCUUCUUUCUCGAUCAGUUGUCUUU
B2: Id_ii_S4_P3E.4_K3.3_C3.2_[C-2A]_H3.3_A3.1_F3.1_T3.2_[A10C] (ssRNA)
RNA: B1 RNA with U24A, C25U
B3: Id_ii_S4_P3E.4_K3.3_C3.2_[C-2T]_[T-1C]_H3.3_A3.1_F3.1_T3.2_[A10T] (ssRNA)
RNA: B1 RNA with C35U
B4: Id_ii_S4_P3E.4_K3.3_C3.2_[C-2T]_H3.3_A3.1_F3.1_T3.2_[T9A] (ssRNA)
RNA: B1 RNA with C25U, U34A, C35A
B5: Id_ii_S4_P3E.4_K3.3_C3.2_[C-2A]_[T-1C]_H3.3_A3.1_F3.1_T3.2_[T9A]_[A10C] (ssRNA)
RNA: B1 RNA with U24A, U34A
B6: Id_ii_S4_P3E.4_K3.3_C3.2_[C-2T]_[T-1A]_H3.3_A3.1_F3.1_T3.2 (ssRNA)
RNA: B1 RNA with C25A, C35A
B7: Id_ii_S4_P3E.4_K3.3_C3.2_[T-1A]_H3.3_A3.1_F3.1_T3.2 (ssRNA)
RNA: B1 RNA with U24C, C25A, C35A
B8: Id_ii_S4_P3E.4_K3.3_C3.2_H3.3_A3.1_F3.1_T3.2_[A10C] (ssRNA)
RNA: B1 RNA with U24C, C25U
B9: Id_ii_S4_P3E.4_K3.3_C3.2_[T-1G]_H3.3_A3.1_F3.1_T3.2_[T9A] (ssRNA)
RNA: B1 RNA with U24C, C25G, U34A, C35A
B10: Id_ii_S4_P3E.4_K3.3_C3.2_[C-2A]_[T-1C]_H3.3_A3.1_F3.1_T3.2_[T9G]_[A10C] (ssRNA)
RNA: B1 RNA with U24A, U34G
B11: Id_ii_S4_P3E.4_K3.3_C3.2_[C-2T]_H3.3_A3.1_F3.1_T3.2_[A10T] (ssRNA)
RNA: B1 RNA with C25U, C35U
B12: Id_ii_S4_P3E.4_K3.3_C3.2_[C-2T]_[T-1A]_H3.3_A3.1_F3.1_T3.2_[T9A]_[A10T] (ssRNA)
RNA: B1 RNA with C25A, U34A, C35U
B13: Id_ii_S4_P3E.4_K3.3_C3.2_[T-1G]_H3.3_A3.1_F3.1_T3.2_[T9C]_[A10T] (ssRNA)
RNA: B1 RNA with U24C, C25G, U34C, C35U
B14: Id_ii_S4_P3E.4_K3.3_C3.2_[T-1C]_H3.3_A3.1_F3.1_T3.2_[A10T] (ssRNA)
RNA: B1 RNA with U24C, C35U
B15: Id_ii_S4_P3E.4_K3.3_C3.2_H3.3_A3.1_F3.1_T3.2_[T9C]_[A10T] (ssRNA)
RNA: B1 RNA with U24C, C25U, U34C, C35U
B16: Id_ii_S4_P3E.4_K3.3_C3.2_[C-2A]_[T-1A]_H3.3_A3.1_F3.1_T3.2_[A10C] (ssRNA)
RNA: B1 RNA with U24A, C25A
B17: Id_ii_S4_P3E.4_K3.3_C3.2_[C-2T]_[T-1A]_H3.3_A3.1_F3.1_T3.2_[A10C] (ssRNA)
RNA: B1 RNA with C25A
B18: Id_ii_S4_P3E.4_K3.3_C3.2_[C-2A]_[T-1C]_H3.3_A3.1_F3.1_T3.2_[A10T] (ssRNA)
RNA: B1 RNA with U24A, C35U
B19: Id_ii_S4_P3E.4_K3.3_C3.2_[C-2A]_H3.3_A3.1_F3.1_T3.2_[T9A]_[A10C] (ssRNA)
RNA: B1 RNA with U24A, C25U, U34A
B20: Id_ii_S4_P3E.4_K3.3_C3.2_[T-1G]_H3.3_A3.1_F3.1_T3.2_[T9C] (ssRNA)
RNA: B1 RNA with U24C, C25G, U34C, C35A
B21: Id_ii_S4_P3E.4_K3.3_C3.2_[C-2A]_[T-1A]_H3.3_A3.1_F3.1_T3.2_[T9C] (ssRNA)
RNA: B1 RNA with U24A, C25A, U34C, C35A
B22: Id_ii_S4_P3E.4_K3.3_C3.2_[C-2T]_H3.3_A3.1_F3.1_T3.2 (ssRNA)
RNA: B1 RNA with C25U, C35A
B23: Id_ii_S4_P3E.4_K3.3_C3.2_[C-2T]_H3.3_A3.1_F3.1_T3.2_[T9G]_[A10C] (ssRNA)
RNA: B1 RNA with C25U, U34G
B24: Id_ii_S4_P3E.4_K3.3_C3.2_H3.3_A3.1_F3.1_T3.2_[T9C] (ssRNA)
RNA: B1 RNA with U24C, C25U, U34C, C35A
B25: Id_ii_S4_P3E.4_K3.3_C3.2_[C-2T]_[T-1A]_H3.3_A3.1_F3.1_T3.2_[A10T] (ssRNA)
RNA: B1 RNA with C25A, C35U
B26: Id_ii_S4_P3E.4_K3.3_C3.2_[T-1A]_H3.3_A3.1_F3.1_T3.2_[T9C]_[A10C] (ssRNA)
RNA: B1 RNA with U24C, C25A, U34C
B27: Id_ii_S4_P3E.4_K3.3_C3.2_[T-1C]_H3.3_A3.1_F3.1_T3.2_[T9G]_[A10C] (ssRNA)
RNA: B1 RNA with U24C, U34G
B28: Id_ii_S4_P3E.4_K3.3_C3.2_[C-2A]_H3.3_A3.1_F3.1_T3.2_[A10T] (ssRNA)
RNA: B1 RNA with U24A, C25U, C35U
B29: Id_ii_S4_P3E.4_K3.3_C3.2_[C-2T]_H3.3_A3.1_F3.1_T3.2_[T9A]_[A10C] (ssRNA)
RNA: B1 RNA with C25U, U34A

target: T1, PUF4 RNA-binding domain (Saccharomyces cerevisiae, UniProt P25339 537-888); experiment: Mg; RNA-MaP; 20 mM Na-HEPES pH 7.4, 30 mM KOAc, 0.75 mM MgCl2, 0.1% Tween-20, 5% glycerol, 0.1 mg/mL BSA, 2 mM DTT; 25 C; 0.0125-409.6 nM protein; details: tags: N-His6-TEV cleaved; C-SNAP kept, Cy3B-labelled; label: tethered on chip by stalled RNA polymerase
T1 sequence: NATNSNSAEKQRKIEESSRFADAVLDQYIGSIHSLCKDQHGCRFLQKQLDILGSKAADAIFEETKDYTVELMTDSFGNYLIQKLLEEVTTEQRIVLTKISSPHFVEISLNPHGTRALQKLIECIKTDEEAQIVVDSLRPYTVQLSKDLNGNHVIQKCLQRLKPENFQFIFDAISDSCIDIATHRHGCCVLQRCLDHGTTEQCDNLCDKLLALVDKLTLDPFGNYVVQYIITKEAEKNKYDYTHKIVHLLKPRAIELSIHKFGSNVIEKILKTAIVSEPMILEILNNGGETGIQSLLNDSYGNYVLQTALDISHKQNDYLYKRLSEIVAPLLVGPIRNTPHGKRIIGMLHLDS

Binder | Kd [nM]
B1 | > 2300
B2 | 41.8
B3 | 1430
B4 | 2300
B5 | 1370
B6 | 264
B7 | 291
B8 | 926
B9 | > 2300
B10 | > 2300
B11 | 946
B12 | > 2300
B13 | > 2300
B14 | 1050
B15 | 1380
B16 | 1020
B17 | 1540
B18 | 1140
B19 | 26.4
B20 | 637
B21 | 496
B22 | 345
B23 | 1230
B24 | 597
B25 | 1310
B26 | 2160
B27 | > 2300
B28 | 49.3
B29 | 935
